Data as given in patent US20090053230A1 (Genentech, published 2009).

Experiments:
[1] = biological target: T1, full-length human OX40L expressed on CHO cells (human, UniProt P23510 1-183); experiment: Scatchard analysis, iodinated antibody on OX40L-expressing CHO cells
T1 construct: whole, on cells; also called CHO-OX40L cells; OX40L-expressing CHO cells
T1 sequence (looked up): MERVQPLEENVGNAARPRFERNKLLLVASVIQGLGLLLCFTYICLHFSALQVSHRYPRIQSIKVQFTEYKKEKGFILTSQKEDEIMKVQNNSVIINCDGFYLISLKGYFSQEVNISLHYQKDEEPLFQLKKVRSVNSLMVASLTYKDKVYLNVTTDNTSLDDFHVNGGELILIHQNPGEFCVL
Procedure: Scatchard binding experiments were performed to determine if anti-OX40L mAbs 8E12 and 13G5 compete with each other for binding similar or overlapping epitopes on CHO cells expressing human OX40L, and to determine the binding affinity of the antibodies. 50 ug of anti-OX40L murine monoclonal antibodies 8E12 and 13G5 were iodinated using a standard lactoperoxidase method. Antibodies 8E12 and 13G5 were serially diluted 1:4 in media buffer (Dubeccos F12:DMEM, 1% bovine serum albumin, 0.05% sodium azide and 25 mM Hepes buffer pH 7.2) starting at an initial concentration of 200 nM. Two sets of dilution series (50 uL) were performed in duplicate in a 96 microwell plate. Wells from each set of dilutions received 50 uL of either iodinated 8E12 or 13G5 (0.25 nM final concentration). The plate was mixed and then the entire mixture was transferred to a 96 well tissue culture plate containing 30,000 OX40L-expressing CHO cells per well which had been plated out the previous day. The plates were covered and incubated overnight at 4° C. The next day the wells (containing cells) were aspirated and washed twice with media buffer. 200 uL of 1N NaOH was added to each well to lyse the cells, shaken for 10 minute, and then transferred to a 96 well microtube. Each tube was counted in a Wallac gamma scintillation counter. […]

mouse OX40L = biological target: T2, mouse OX40L (mouse, UniProt P43488 51-198, limits assumed); experiment: ELISA, plates coated with mouse OX40L, goat anti-mouse Fc-HRP detection
T2 construct: Construct coated on the plate is not described
T2 sequence (looked up): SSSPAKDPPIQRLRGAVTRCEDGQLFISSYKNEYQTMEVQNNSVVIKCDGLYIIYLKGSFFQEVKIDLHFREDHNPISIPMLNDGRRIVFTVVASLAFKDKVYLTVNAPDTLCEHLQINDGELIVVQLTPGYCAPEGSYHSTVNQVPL
Procedure: (§1) To determine whether Mabs 8E12 and 13G5 bound mouse OX40L, ELISA plates were coated with mouse OX40L. Serial dilutions of 8E12 or 13G5 (0.004-4 ug/ml) were added. Goat anti-mouse Fc-HRP was used for detection. No binding was observed. In a different format, ELISA plates were coated with 8E12 or 13G5. Serial dilutions of mouse OX40L-Flag were added. Biotinylated anti-Flag followed by streptavidin-HRP was used for detection. No binding was observed.

[2] = biological target: T3, recombinant human OX40L-flag polypeptide (human OX40 ligand extracellular domain fused to the flag peptide) (human, UniProt P23510 51-183); experiment: SPR (BIAcore 3000), OX40L-Flag captured by immobilised anti-Flag, IgG as analyte
T3 construct: extracellular domain; Expressed from CHO cells (Genentech); also called human OX40L ECD-Flag polypeptide; human OX40L in solution; not shown: flag peptide
T3 sequence (looked up): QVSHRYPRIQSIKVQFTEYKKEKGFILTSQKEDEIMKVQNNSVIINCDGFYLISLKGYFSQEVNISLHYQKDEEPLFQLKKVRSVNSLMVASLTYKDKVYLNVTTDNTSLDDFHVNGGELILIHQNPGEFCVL
Procedure: Binding kinetics of mouse anti-OX40L antibodies to human OX40L were measured by surface plasmon resonance using Pharmacia BIAcore® 3000 (BIAcore AB, Uppsala, Sweden) at room temperature (Karlsson et al., 1994; Morton & Myszka, 1998). Anti-Flag antibody (anti-FlagM2, Sigma, St. Louis, Mo.) was immobilized to the sensor chip (CM5) through primary amine groups. A high flow rate was used in order to minimize mass transport effects. The carboxymethylated sensor chip surface matrix was activated by injecting 20 ul of a mixture of 0.025 M N-hydroxysuccinimide and 0.1 M N-ethyl-N′(dimethylaminopropyl) carbodiimide at 5 ul/min. 7 ul of 50 ug/ml anti-Flag in 10 mM sodium acetate, pH 4.5, were injected at 5 ul/min twice. After coupling, unoccupied sites on the chip were blocked by injecting 20 ul of 1M ethanolamine, pH 8.5. The running buffer was PBS containing 0.05% polysorbate 20. 5 ul of 4 ug/ml OX40L-Flag were injected at 30 ul/min to bind […] to the anti-Flag on the chip. For kinetic measurements, two-fold serial dilutions (6.2-50 nM) of mouse […] 8E12 (PUR 9333) and 13G5 (PUR 9306) in running buffer were injected over flow cell for 2 minutes at a flow rate of 30 ul/min and the bound anti-OX40L antibody was allow to dissociate for 20 minutes. […] Data were analyzed using a 1:1 binding model using global fitting. […]

[3] = biological target: T1, full-length human OX40L expressed on …; experiment: cell-based competition ELISA on CHO cells expressing full-length human OX40L; competitor human OX40-IgG, anti-Fc-HRP
Procedure: (§2) In other experiments, CHO cells expressing full-length human OX40L were grown in 50:50 F12/DMEM medium supplemented with 2 mM L-glutamine, 100 units/ml penicillin, 100 ug/ml streptomycin (supplemented medium), and 5% FBS (Gibco BRL Life Technologies, Gaithersburg, Md.) (growth medium) in a humidified 5% CO₂ incubator at 37° C. Cells were detached from culture plates using Accutase (ICN) and added to 96 well microwell plates at 300,000 cells/well. A mixture of human OX40-IgG and serial dilutions of antibodies in growth medium was added to the plates. After a one-hour incubation on ice, cells were washed by centrifuging the plates and removing the supernatant. Bound human OX40-IgG was detected using anti-Fc-HRP. […] In some experiments, human OX40-IgG-bio was used instead of human OX40-IgG. Bound human OX40-IgG-bio was detected using streptavidin-HRP. Plates were developed and read as described above.

[4] = biological target: T1, full-length human OX40L expressed on …; experiment: cell-based competition ELISA on CHO cells expressing full-length human OX40L; competitor human OX40-IgG-bio, streptavidin-HRP
Procedure: as §2

mouse OX40L-Flag = biological target: T4, mouse OX40L-Flag (mouse, UniProt P43488 51-198, limits assumed); experiment: ELISA, plates coated with antibody, serial dilutions of mouse OX40L-Flag, biotinylated anti-Flag and streptavidin-HRP detection
T4 construct: not shown: Flag tag
T4 sequence (looked up): T2 sequence (looked up)
Procedure: as §1

[5] = biological target: T3, recombinant human OX40L-flag …; experiment: competition ELISA, OX40L ECD-Flag captured by anti-Flag; competitor human OX40-IgG-bio; OX40L ECD-Flag captured on anti-Flag plate; OX40-IgG-bio as competitor
Procedure: Competition ELISA analysis was conducted as follows to examine binding of anti-OX40L Mabs 8E12 and 13G5 to OX40L in solution, and to examine binding to cell-surface expressed OX40L. In some experiments, maxiSorp 96-well microwell plates (Nunc, Roskilde, Denmark) were coated overnight at 4° C. with 2 ug/ml anti-FlagM2 antibody (Sigma) in 50 mM carbonate buffer, pH 9.6. Plates were washed with PBS containing 0.05% polysorbate 20 and blocked with 0.5% bovine serum albumin, 10 ppm Proclin 300 (Supelco, Bellefonte, Pa.) in PBS at room temperature for 1 h. Plates were washed and 0.5 ug/ml of human OX40L ECD-Flag polypeptide was added. After a one-hour incubation, plates were washed. A mixture of human OX40-IgG-bio and serial dilutions of antibodies in PBS containing 0.5% bovine serum albumin, 0.05% polysorbate 20, 10 ppm Proclin 300 was added. The plates were incubated for 2 h at room temperature and washed. Bound human OX40-IgG-bio was detected by adding streptavidin-HRP (Amdex, Copenhagen, Denmark) followed by 3,3′,5,5′-tetramethyl benzidine (Kirkegaard & Perry Laboratories, Gaithersburg, Md.) as the substrate. […] Absorbance was read at 450 nm on a Titertek stacker reader (ICN, Costa Mesa, Calif.). The titration curves were fit using a four parameter regression curve fitting program (KaleidaGraph, Synergy software, Reading, Pa.). […]

[6] = biological target: T1, full-length human OX40L expressed on …; experiment: competitive radioligand binding on OX40L-expressing CHO cells; antibody titrated against iodinated OX40-Fc (0.25 nM final), overnight at 4 C, gamma counting, 4-parameter fit
Procedure: Competitive binding experiments were performed to determine if anti-OX40L mAbs 8E12 and 13G5 competed with iodinated OX40-Fc (extracellular domain of OX40 receptor fused to Fc domain) for binding to OX40L expressed on CHO cells. 50 ug of […] was iodinated using a standard lactoperoxidase method. Antibodies 8E12 and 13G5 were serially diluted 1:4 in media buffer (Dubeccos F12:DMEM, 1% bovine serum albumin, 0.05% sodium azide and 25 mM Hepes buffer pH 7.2) starting at an initial concentration of 200 nM. Dilutions (50 uL) were performed in duplicate in a 96 microwell plate. Each well received 50 uL of iodinated […] (0.25 nM final concentration), was mixed and then the entire mixture was transferred to a 96 well tissue culture plate containing 30,000 OX40L-expressing CHO cells per well, which had been plated out the previous day. The plates were covered and incubated overnight at 4° C. The next day the wells (containing cells) were aspirated and washed twice with media buffer. 200 uL of 1N NaOH was added to each well to lyse the cells, shaken for 10 minute, and then transferred to a 96 well microtube. Each tube was counted in a Wallac gamma scintillation counter. The data was collected and plotted using Kaleidagraph. Curves were drawn using a 4-parameter fit.

[7] = biological target: T3, recombinant human OX40L-flag …; experiment: competition ELISA, coated human OX40-IgG as competitor, Flag-tagged OX40L (printed 'OX40-Flag') in solution with antibody dilutions; plate coated with OX40-IgG; Flag-tagged ligand in solution with antibody

- Kd [1]: 0.92 nM
- binding result (mouse OX40L): no binding (tested: 0.004-4 ug/ml)
- koff [2]: < 5e-06 s⁻¹
- EC50 [3]: ~20 nM
- EC50 [4]: ~11 nM
- binding result (mouse OX40L-Flag): no binding
- EC50 [5]: ~1.4 nM
- IC50 (read off the curve) [6]: 2.5 to 3 nM
- EC50 [7]: ~1.9 nM
B1: mouse anti-human OX40L monoclonal antibody 8E12 (antibody, V domains shown)
VH: QVQLQQPGAELVRPGASVKLSCKASGYTFTSYWLNWVKQRPGQGLEWIVMIDPSDSETHYNQVFKDKATLTVDKSSSTAYMQLSSLTSEDSAVYYCIRGRGNFYGGSHAMEYWGQGTLLTVSS
VL: DILMTQTPLSLPVSLGDQASISCRSSQSIVHGNGNTYLEWHLQKPGQSPKLLIYRVSNRFSGVPDRFSGSGSGTDFTLKINRVEAEDLGVYYCFQGSHVPYTFGGGTKVEIKR
notes: Tested as mouse IgG purified from hybridoma medium by Protein A; also called Mab 8E12; anti-OX40L mab 8E12
